These results are taken from PMC3655264 (2010).

Assay [1] concerns the target T1, μ2 KRR>E Core (Rattus norvegicus (alpha2, mu2), Homo …). The experiment in a line: SPR; liposomes with 10% PtdIns4,5P2 + 1% TGN38. In general terms: SPR reads the build-up and loss of mass on a sensor chip optically.
In assay [2] the target is T2, AP2 core (recombinant; α trunk, β2 trunk, myc-tagged μ2, σ2) (UniProt P63010 1-592; P84092 1-236; P84092 237-435; P62743 1-142). Kind of assay: SPR; liposomes with 10% PtdIns4,5P2 + 1% TGN38.
T2 sequence (chain, as listed by the source, chain 1 of 4): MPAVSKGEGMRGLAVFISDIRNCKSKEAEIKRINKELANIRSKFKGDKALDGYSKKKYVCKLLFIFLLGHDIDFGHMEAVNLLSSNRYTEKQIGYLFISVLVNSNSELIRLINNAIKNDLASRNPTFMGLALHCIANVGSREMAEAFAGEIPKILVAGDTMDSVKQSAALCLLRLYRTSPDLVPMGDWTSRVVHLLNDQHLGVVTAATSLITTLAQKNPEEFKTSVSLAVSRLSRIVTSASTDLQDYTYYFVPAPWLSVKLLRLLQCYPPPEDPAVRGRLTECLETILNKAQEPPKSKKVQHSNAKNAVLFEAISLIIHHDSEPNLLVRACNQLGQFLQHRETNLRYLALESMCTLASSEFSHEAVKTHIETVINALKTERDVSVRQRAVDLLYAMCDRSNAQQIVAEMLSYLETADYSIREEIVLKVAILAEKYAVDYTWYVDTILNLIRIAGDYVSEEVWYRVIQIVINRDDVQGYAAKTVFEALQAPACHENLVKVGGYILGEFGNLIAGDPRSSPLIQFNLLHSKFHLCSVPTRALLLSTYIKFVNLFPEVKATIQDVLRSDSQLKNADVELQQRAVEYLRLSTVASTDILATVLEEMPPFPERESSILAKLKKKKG
T2 sequence (P63010 1-592, chain 2 of 4): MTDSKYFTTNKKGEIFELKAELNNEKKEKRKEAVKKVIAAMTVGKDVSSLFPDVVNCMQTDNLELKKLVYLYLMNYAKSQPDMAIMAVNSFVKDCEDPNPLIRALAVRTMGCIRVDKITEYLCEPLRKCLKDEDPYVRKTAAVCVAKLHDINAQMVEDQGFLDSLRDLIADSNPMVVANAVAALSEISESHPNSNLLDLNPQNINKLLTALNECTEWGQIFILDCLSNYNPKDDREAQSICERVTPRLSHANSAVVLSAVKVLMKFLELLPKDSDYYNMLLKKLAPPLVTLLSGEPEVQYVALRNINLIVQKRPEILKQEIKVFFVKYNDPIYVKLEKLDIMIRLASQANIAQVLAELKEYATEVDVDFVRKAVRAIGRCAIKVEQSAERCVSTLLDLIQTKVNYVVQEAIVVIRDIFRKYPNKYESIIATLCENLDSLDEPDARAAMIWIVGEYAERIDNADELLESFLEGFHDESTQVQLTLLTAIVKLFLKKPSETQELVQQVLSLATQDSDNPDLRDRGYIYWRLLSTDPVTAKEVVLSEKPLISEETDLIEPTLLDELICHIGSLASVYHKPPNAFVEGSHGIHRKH
T2 sequence (P84092 other isoform, or with tags, fused parts or gaps, chain 3 of 4): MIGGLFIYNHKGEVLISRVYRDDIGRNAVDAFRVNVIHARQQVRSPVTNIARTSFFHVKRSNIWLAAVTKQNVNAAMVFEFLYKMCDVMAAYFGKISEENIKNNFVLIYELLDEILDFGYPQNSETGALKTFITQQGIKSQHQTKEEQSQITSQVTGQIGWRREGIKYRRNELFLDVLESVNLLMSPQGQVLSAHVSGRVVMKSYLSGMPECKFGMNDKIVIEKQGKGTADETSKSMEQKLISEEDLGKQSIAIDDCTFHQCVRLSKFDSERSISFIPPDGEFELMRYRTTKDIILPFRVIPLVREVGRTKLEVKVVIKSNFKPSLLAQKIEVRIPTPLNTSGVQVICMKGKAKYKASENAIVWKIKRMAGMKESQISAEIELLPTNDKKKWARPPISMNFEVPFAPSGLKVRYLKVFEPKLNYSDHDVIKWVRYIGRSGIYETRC
T2 sequence (P62743 whole entry, chain 4 of 4): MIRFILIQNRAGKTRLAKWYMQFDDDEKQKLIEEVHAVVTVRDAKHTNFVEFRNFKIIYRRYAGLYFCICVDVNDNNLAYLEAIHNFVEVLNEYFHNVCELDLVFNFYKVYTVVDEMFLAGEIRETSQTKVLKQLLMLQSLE
Assay [3] deals with β2^PIP-Core (AP2 core with β2 Lys5, Lys12, Lys26, Lys27, Lys29, Lys36 mutated to glutamate) (UniProt P63010 1-592; P84092 1-236; P84092 237-435; P62743 1-142, Lys5 to glutamate | Lys12 to glutamate | Lys26 to glutamate | Lys27 to …). The experiment in a line: SPR; liposomes with 10% PtdIns4,5P2 + 1% TGN38.
Sequence of β2^PIP-Core (AP2 core with β2 Lys5, Lys12, Lys26, Lys27, Lys29, Lys36 mutated to glutamate) (P18484 other isoform, or with tags, fused parts or gaps with the stated changes, chain 1 of 4): as the sequence (chain, as listed by the source, chain 1 of 4) above
Sequence of β2^PIP-Core (AP2 core with β2 Lys5, Lys12, Lys26, Lys27, Lys29, Lys36 mutated to glutamate) (P63010 other isoform, or with tags, fused parts or gaps with the stated changes, chain 2 of 4): as the sequence (P63010 1-592, chain 2 of 4) above, with K5E, K12E, K26E, K27E, K29E, K36E counted along it
Sequence of β2^PIP-Core (AP2 core with β2 Lys5, Lys12, Lys26, Lys27, Lys29, Lys36 mutated to glutamate) (Q96CW1 other isoform, or with tags, fused parts or gaps with the stated changes, chain 3 of 4, further chain): as the sequence (P84092 other isoform, or with tags, fused parts or gaps, chain 3 of 4) above
Sequence of β2^PIP-Core (AP2 core with β2 Lys5, Lys12, Lys26, Lys27, Lys29, Lys36 mutated to glutamate) (B2R4Z4 whole entry, stated change not applied, chain 4 of 4, further chain): as the sequence (P62743 whole entry, chain 4 of 4) above
For assay [4], the target named is α^PIP-Core (AP2 core with mutations in the PtdIns4,5P2-binding site on α) (UniProt P63010 1-592; P84092 1-236; P84092 237-435; P62743 1-142). Kind of assay: SPR; liposomes with 10% PtdIns4,5P2 + 1% TGN38.
The target in assay [5] is T3, μ2^PIP-Core (AP2 core with the μ2 mutations 5K>E and KRR>E combined) (UniProt P63010 1-592; P84092 1-236; P84092 237-435; P62743 1-142). Kind of assay: SPR; liposomes with 10% PtdIns4,5P2 + 1% TGN38.
Assay [6] concerns the target μ2 5K>E Core. Kind of assay: SPR; liposomes with 10% PtdIns4,5P2 + 1% TGN38.
Assay [7] concerns the target T1, μ2 KRR>E Core. Kind of assay: SPR; liposomes with 10% PtdIns4,5P2 + 1% CD4P.
The target in assay [8] is T2, AP2 core (recombinant; α trunk, β2 …). The experiment in a line: SPR; liposomes with 10% PtdIns4,5P2 + 1% CD4P.
In assay [9] the target is T3, μ2^PIP-Core (AP2 core with the μ2 …). The experiment in a line: SPR; liposomes with 10% PtdIns4,5P2 + 1% CD4P.
The target of assay [10] is μ2 5K>E Core. The experiment in a line: SPR; liposomes with 10% PtdIns4,5P2 + 1% CD4P.

Where no end group is shown, it is not given here. [ ]: non-standard residue; d: D form. The star is where a group is joined. MPB‑DPPE = 1,2-dipalmitoyl-sn-glycero-3-phosphoethanolamine-N-[4-(p-maleimidophenyl)butyramide], CCCCCCCCCCCCCCCC(=O)OC[C@H](COP(=O)(O)OCCNC(=O)CCCc1ccc(N2C(=O)CC(*)C2=O)cc1)OC(=O)CCCCCCCCCCCCCCC; pS = N[C@@H](COP(=O)(O)O)C(=O)O

T1 sequence (chain, as listed by the source, chain 1 of 4): as the sequence (chain, as listed by the source, chain 1 of 4) above
T1 sequence (chain, as listed by the source, chain 2 of 4): as the sequence (P63010 1-592, chain 2 of 4) above
T1 sequence (chain, as listed by the source, chain 3 of 4): as the sequence (P84092 other isoform, or with tags, fused parts or gaps, chain 3 of 4) above, with K167E, R169E, R170E counted along it
T1 sequence (chain, as listed by the source, chain 4 of 4): as the sequence (P62743 whole entry, chain 4 of 4) above

For the molecule C(MPB‑DPPE)KVTRRPKASDYQRL [lipid-linked TGN38 sorting motif peptide (CKVTRRPKASDYQRL) displayed in liposomes], the Kd with μ2 KRR>E Core [1] was 330 nM; in assay [2], 320 nM; in [3], 20 µM; in [4] it was over 30 µM; in [5] it was 6.2 µM; with μ2 5K>E Core [6] it was 520 nM.

As for C(1,2‑dipalmitoyl‑sn‑glycero‑3‑phosphoethanolamine‑N‑(4-(p-maleimidophenyl)butyramide))HRRRQAERM[pS]QIKRLLSEK, the dissociation constant Kd stood at 850 nM with μ2 KRR>E Core [7], 820 nM in [8], 2500 nM in assay [9] and 950 nM with μ2 5K>E Core [10].

By Kd is commonly meant the equilibrium constant for the complex coming apart.
